Experimental findings from US20220048996A1 are described below.

pEC50, pKd: −log10 of the molar value.

In assay [1] the target is human OX40 expressed on DO11.10 cells (DO11.10-hOX40) (human) (UniProt P43489). Description: cell-based or functional assay.
The target in another assay is hOX40-mFc (human). Description: SPR, antibody captured via anti-human Fab, dimeric antigen flowed, 1:1 fit. For orientation: In SPR one partner is held on a chip, and binding of the other changes the refractive index at the surface.
For assay [2], the target named is hFcγR3a (R&D Systems 4325-FC-050/CF) (human) (UniProt P08637). Kind of assay: SPR, antibody 100 nM on OX40-his chip co-injected with FcγR 500 nM.
Assay [3] addresses hFcγR2b (R&D Systems 1460-CD-050/CF) (human) (UniProt P31994). The assay is described as above.
The target of assay [4] is hFcγR1 (R&D Systems 1257-FC-050/CF) (human) (UniProt P12314). Described as above.
The target in assay [5] is hFcγR2a (R&D Systems 1330-CD-050/CF) (human) (UniProt P12318). Described as above.
The target in assay [6] is cynomolgus OX40 expressed on DO11.10 cells (DO11.10-cOX40) (cynomolgus). Description: flow cytometry on DO11.10 cells expressing the target.
The target in assay [7] is human OX40 expressed on DO11.10 cells (DO11.10-hOX40) (human) (UniProt P43489). The description is as above.
In assay [8] the target is mouse CD137 expressed on DO11.10 cells (DO11.10-mCD137) (mouse) (UniProt P20334). Described as above.
The target of assay [9] is human OX40 expressed on DO11.10 cells (DO11.10-hOX40) (human) (UniProt P43489). Kind of assay: flow cytometry on DO11.10-hOX40. (Flow cytometry measures light scatter and fluorescence of single cells or particles in a stream.)
Assay [10] addresses cynomolgus OX40 expressed on DO11.10 cells (DO11.10-cOX40) (cynomolgus). Description: flow cytometry on DO11.10-cOX40.
The target in assay [11] is mouse CD137 expressed on DO11.10 cells (DO11.10-mCD137) (mouse) (UniProt P20334). Kind of assay: cell-based or functional assay.
In assay [12] the target is hFcγR3a (R&D Systems 4325-FC-050/CF) (human) (UniProt P08637). Description: SPR, antibody 100 nM on CD137-his chip co-injected with FcγR 500 nM.
For assay [13], the target named is hFcγR2b (R&D Systems 1460-CD-050/CF) (human) (UniProt P31994). The description is as above.
Assay [14] addresses hFcγR1 (R&D Systems 1257-FC-050/CF) (human) (UniProt P12314). The assay is described as above.
Assay [15] deals with hFcγR2a (R&D Systems 1330-CD-050/CF) (human) (UniProt P12318). The description is as above.

hFcγR1 (R&D Systems 1257-FC-050/CF) (human), sequence (P12314 16-288 limits assumed): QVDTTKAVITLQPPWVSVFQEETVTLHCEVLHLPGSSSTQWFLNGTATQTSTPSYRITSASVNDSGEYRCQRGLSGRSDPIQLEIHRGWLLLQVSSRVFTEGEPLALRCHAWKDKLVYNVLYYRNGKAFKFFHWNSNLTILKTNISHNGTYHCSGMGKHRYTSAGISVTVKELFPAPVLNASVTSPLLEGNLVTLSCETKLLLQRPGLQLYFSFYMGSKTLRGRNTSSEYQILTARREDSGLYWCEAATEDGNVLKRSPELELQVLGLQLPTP
mouse CD137 expressed on DO11.10 cells (DO11.10-mCD137) (mouse), sequence (P20334 24-256): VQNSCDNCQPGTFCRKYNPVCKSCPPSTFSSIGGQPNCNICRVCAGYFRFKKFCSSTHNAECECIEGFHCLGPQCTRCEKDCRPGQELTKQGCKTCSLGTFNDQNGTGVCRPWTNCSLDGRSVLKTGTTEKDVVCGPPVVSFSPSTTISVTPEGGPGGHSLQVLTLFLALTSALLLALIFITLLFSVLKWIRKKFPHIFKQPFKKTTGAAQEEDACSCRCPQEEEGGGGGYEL
hFcγR2a (R&D Systems 1330-CD-050/CF) (human), sequence (P12318 36-218 limits assumed): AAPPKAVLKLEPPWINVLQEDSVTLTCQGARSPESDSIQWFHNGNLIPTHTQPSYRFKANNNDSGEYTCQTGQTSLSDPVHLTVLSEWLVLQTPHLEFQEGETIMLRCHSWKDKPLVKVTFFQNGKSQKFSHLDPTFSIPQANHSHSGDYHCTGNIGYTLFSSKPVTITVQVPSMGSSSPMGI
human OX40 expressed on DO11.10 cells (DO11.10-hOX40) (human), sequence (P43489 29-277): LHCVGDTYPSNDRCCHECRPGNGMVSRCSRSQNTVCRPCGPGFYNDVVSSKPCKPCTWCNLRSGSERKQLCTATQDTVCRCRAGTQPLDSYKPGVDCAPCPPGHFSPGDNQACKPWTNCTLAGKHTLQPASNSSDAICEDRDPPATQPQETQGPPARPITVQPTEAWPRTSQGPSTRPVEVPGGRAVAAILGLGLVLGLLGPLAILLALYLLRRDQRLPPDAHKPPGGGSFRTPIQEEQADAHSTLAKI
hFcγR3a (R&D Systems 4325-FC-050/CF) (human), sequence (P08637 17-208 limits assumed): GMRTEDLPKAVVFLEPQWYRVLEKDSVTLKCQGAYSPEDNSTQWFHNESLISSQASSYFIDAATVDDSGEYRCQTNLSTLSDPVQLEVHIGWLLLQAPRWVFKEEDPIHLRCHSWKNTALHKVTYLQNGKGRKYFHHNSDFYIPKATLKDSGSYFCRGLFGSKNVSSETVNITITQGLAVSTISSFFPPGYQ
hFcγR2b (R&D Systems 1460-CD-050/CF) (human), sequence (P31994 46-217 limits assumed): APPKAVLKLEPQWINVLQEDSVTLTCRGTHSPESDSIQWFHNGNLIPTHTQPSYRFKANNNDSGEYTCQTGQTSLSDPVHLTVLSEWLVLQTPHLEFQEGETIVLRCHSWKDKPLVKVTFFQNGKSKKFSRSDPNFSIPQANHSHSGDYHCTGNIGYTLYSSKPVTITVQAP
cynomolgus OX40 expressed on DO11.10 cells (DO11.10-cOX40) (cynomolgus), sequence (P43489 other isoform, or with tags, fused parts or gaps): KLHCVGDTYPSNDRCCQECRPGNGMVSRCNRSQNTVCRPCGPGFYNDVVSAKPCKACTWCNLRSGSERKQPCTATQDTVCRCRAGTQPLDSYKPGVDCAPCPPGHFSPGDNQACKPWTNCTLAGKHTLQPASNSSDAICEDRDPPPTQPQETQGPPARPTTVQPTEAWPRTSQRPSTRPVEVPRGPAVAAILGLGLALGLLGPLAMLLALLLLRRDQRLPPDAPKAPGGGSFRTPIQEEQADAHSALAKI
hOX40-mFc (human), sequence (chain, as listed by the source limits assumed): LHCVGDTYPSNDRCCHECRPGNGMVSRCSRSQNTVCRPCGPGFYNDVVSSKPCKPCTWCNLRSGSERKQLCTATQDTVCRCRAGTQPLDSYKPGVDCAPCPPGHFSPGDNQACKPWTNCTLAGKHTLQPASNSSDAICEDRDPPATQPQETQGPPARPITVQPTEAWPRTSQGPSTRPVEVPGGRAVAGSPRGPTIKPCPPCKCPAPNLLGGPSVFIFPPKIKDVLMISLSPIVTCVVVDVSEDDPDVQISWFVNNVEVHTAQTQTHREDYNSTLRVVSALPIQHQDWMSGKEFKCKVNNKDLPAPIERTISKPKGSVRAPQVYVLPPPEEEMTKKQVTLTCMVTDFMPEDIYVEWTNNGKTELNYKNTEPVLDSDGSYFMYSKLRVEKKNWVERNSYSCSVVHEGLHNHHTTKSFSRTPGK

The pKd is the Kd on a negative log10 scale, so that one unit is a factor of ten. A low value points to a large Kd. For orientation: pEC50 means the EC50 on a negative log10 scale, so that one unit is a factor of ten. In assay [1], G1/11D4 (antibody) had an SEA assay (PBMC), hIL-2 max response, crosslinked of 6610 pg/mL; an SEA assay (PBMC), hIL-2 release EC50, crosslinked of 0.13 nM; a pan-T cell activation assay, hIL-2 max response, crosslinked of 6380 pg/mL; a pan-T cell activation assay, hIL-2 release EC50, crosslinked of 0.0513 nM. For the same substance, in the assay with hOX40-mFc (human), the pKd was 10.47. The substance further registered a binding response at end of association phase of FcγR in [2] of 143 RU. This substance also gave a binding response at end of association phase of FcγR in assay [3] of 89.7 RU. In assay [4], the binding response at end of association phase of FcγR stood at 370 RU and the decrease of binding response at end of dissociation phase of FcγR came out at 46.4 RU. This substance also gave a binding response at end of association phase of FcγR in assay [5] of 123 RU. In [6], this substance showed a pEC50 of 10.03. The pEC50 in assay [7] is 9.90.

Substance G1/Lob12.3 (antibody) gave a pEC50 in assay [8] of 9.92.

In assay [1], G1AA/11D4 (antibody) registered a CD4+ T cell activation assay, hIL-2 max response, crosslinked of 8820 pg/mL; a CD4+ T cell activation assay, hIL-2 release EC50, crosslinked of 0.0813 nM; a CD8+ T cell activation assay, hIL-2 max response, crosslinked of 388 pg/mL; a CD8+ T cell activation assay, hIL-2 release EC50, crosslinked of 0.0996 nM. Further, in assay [1], the SEA assay (PBMC), hIL-2 max response, crosslinked was found to be 4270 pg/mL; the SEA assay (PBMC), hIL-2 release EC50, crosslinked is 0.0716 nM; the pan-T cell activation assay, hIL-2 max response, crosslinked was determined as 4130 pg/mL; the pan-T cell activation assay, hIL-2 release EC50, crosslinked came to 0.13 nM. In assay [9], this substance gave a negative-log EC50 (pEC50) of 9.09. The binding response at end of association phase of FcγR in [2] was 67.3 RU. Besides, the binding response at end of association phase of FcγR in assay [3] stood at 60.9 RU. In assay [4], this substance came in with a binding response at end of association phase of FcγR of 292 RU and a decrease of binding response at end of dissociation phase of FcγR of 203 RU. In assay [5], this substance gave a binding response at end of association phase of FcγR of 64.5 RU. This substance gave a pEC50 in assay [10] of 9.67.

In assay [11], G1AA/Lob12.3 (antibody) yielded a mouse pan-T cell activation assay, mIL-2 max response, crosslinked of 374 pg/mL and a mouse pan-T cell activation assay, mIL-2 release EC50, crosslinked of 1.18 nM.

For the substance G4/20H4.9 (antibody), the binding response at end of association phase of FcγR in [12] was found to be 113 RU; in [13], 164 RU; in assay [14] it was 693 RU; in assay [15] it was 156 RU. The same substance showed a decrease of binding response at end of dissociation phase of FcγR in [14] of 57.1 RU.
